Laboratory results reported in patent US20140044730A1 (Regeneron, published 2014).

Legend:
[1] = molecular target: T1, human PCSK9 with a C-terminal myc-myc-hexahistidine tag (human, UniProt Q8NBP7 31-692, limits assumed); assay: SPR 25C pH 7.2, mAb captured;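 further: biacore SPR, antibodies captured on anti-human Fc CM4 chip with PCSK9 flowed as analyte, rate constants from a one-to-one kinetic fit, KD and half-life derived from them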
T1 construct: also called hPCSK9-mmH; hPCSK9-mmh; not shown: C-terminal myc-myc-hexahistidine tag

[2] = molecular target: T1, human PCSK9 with a C-terminal …; assay: SPR 25C pH 5.75, mAb captured;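 further: biacore surface with anti-human Fc antibody capturing the antibodies, PCSK9 as analyte, one-to-one kinetic fit, KD as kd over ka, half-life derived from kd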
[3] = molecular target: T1, human PCSK9 with a C-terminal …; assay: SPR 25C, mAb captured;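 further: biacore CM4 surface bearing anti-human Fc antibody capturing the mAbs, PCSK9 binding and release rates fitted with a one-to-one model, KD and half-life derived from those rates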
Experimental: A Biacore CM4 sensor chip was derivatized with a monoclonal mouse anti-human Fc antibody to capture human antibodies. The histidine substitution variant anti-PCSK9 antibodies were captured onto the anti-human Fc sensor surface from culture medium after transient expression in Chinese hamster ovary (CHO) cells. […] Kinetic association (kₐ) and dissociation (kd) rate constants were determined by processing and fitting the data to a 1:1 binding model using Scrubber 2.0 curve fitting software. Binding dissociation equilibrium constants (KD) and dissociative half-lives (t_{1/2}) were calculated from the kinetic rate constants as: KD (M)=kd/kₐ; and t_{1/2} (min)=(In2/(60*kd).

B1: VH-A97 (antibody, V domains shown)
VH: EMQLVESGGGLVQPGGSLRLSCAASGFTFSSHWMKWVRQAPGKGLEWVANINQDGSEKYYVDSVKGRFTISRDNAKNSLFLQMNSLRAEDTAVYYCHRDIVLMVYDMDYYYYGMDVWGQGTTVTVSS
VL: not shown
notes: His variant of 300N; label printed without the final H
binding result [1]: no binding

B2: VH-E57H (antibody, V domains shown)
VH: EMQLVESGGGLVQPGGSLRLSCAASGFTFSSHWMKWVRQAPGKGLEWVANINQDGSHKYYVDSVKGRFTISRDNAKNSLFLQMNSLRAEDTAVYYCARDIVLMVYDMDYYYYGMDVWGQGTTVTVSS
VL: not shown
notes: His variant of 300N
Kd [2]: 1.23 nM
t½ [2]: 8 min
KD ratio pH 5.75/pH 7.2 [3]: 1.03
t½ ratio pH 5.75/pH 7.2 [3]: 0.26
Kd [1]: 1.2 nM
t½ [1]: 30 min

B3: VK-T96H (antibody, V domains shown)
VH: EMQLVESGGGLVQPGGSLRLSCAASGFTFSSHWMKWVRQAPGKGLEWVANINQDGSEKYYVDSVKGRFTISRDNAKNSLFLQMNSLRAEDTAVYYCARDIVLMVYDMDYYYYGMDVWGQGTTVTVSS
VL: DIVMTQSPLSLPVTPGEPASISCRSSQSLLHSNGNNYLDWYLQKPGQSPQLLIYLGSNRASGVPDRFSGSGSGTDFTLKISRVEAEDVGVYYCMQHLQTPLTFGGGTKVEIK
notes: His variant of 300N
binding result [1]: no binding

B4: VH-D115H (antibody, V domains shown)
VH: EMQLVESGGGLVQPGGSLRLSCAASGFTFSSHWMKWVRQAPGKGLEWVANINQDGSEKYYVDSVKGRFTISRDNAKNSLFLQMNSLRAEDTAVYYCARDIVLMVYDMDYYYYGMHVWGQGTTVTVSS
VL: not shown
notes: His variant of 300N
Kd [2]: 18.1 nM
t½ [2]: 13 min
KD ratio pH 5.75/pH 7.2 [3]: 4.62
t½ ratio pH 5.75/pH 7.2 [3]: 0.49
Kd [1]: 3.91 nM
t½ [1]: 26 min

B5: VH-I51H (antibody, V domains shown)
VH: EMQLVESGGGLVQPGGSLRLSCAASGFTFSSHWMKWVRQAPGKGLEWVANHNQDGSEKYYVDSVKGRFTISRDNAKNSLFLQMNSLRAEDTAVYYCARDIVLMVYDMDYYYYGMDVWGQGTTVTVSS
VL: not shown
notes: His variant of 300N
Kd [2]: 1.03 nM
t½ [2]: 17 min
KD ratio pH 5.75/pH 7.2 [3]: 1.24
t½ ratio pH 5.75/pH 7.2 [3]: 0.34
Kd [1]: 0.828 nM
t½ [1]: 50 min

B6: VH-F27H (antibody, V domains shown)
VH: EMQLVESGGGLVQPGGSLRLSCAASGHTFSSHWMKWVRQAPGKGLEWVANINQDGSEKYYVDSVKGRFTISRDNAKNSLFLQMNSLRAEDTAVYYCARDIVLMVYDMDYYYYGMDVWGQGTTVTVSS
VL: not shown
notes: His variant of 300N
Kd [2]: 1.05 nM
t½ [2]: 12 min
KD ratio pH 5.75/pH 7.2 [3]: 0.87
t½ ratio pH 5.75/pH 7.2 [3]: 0.29
Kd [1]: 1.21 nM
t½ [1]: 42 min

B7: VH-D54H (antibody, V domains shown)
VH: EMQLVESGGGLVQPGGSLRLSCAASGFTFSSHWMKWVRQAPGKGLEWVANINQHGSEKYYVDSVKGRFTISRDNAKNSLFLQMNSLRAEDTAVYYCARDIVLMVYDMDYYYYGMDVWGQGTTVTVSS
VL: not shown
notes: His variant of 300N
Kd [2]: 0.76 nM
t½ [2]: 13 min
KD ratio pH 5.75/pH 7.2 [3]: 0.79
t½ ratio pH 5.75/pH 7.2 [3]: 0.33
Kd [1]: 0.964 nM
t½ [1]: 40 min

B8: VH-L102H (antibody, V domains shown)
VH: EMQLVESGGGLVQPGGSLRLSCAASGFTFSSHWMKWVRQAPGKGLEWVANINQDGSEKYYVDSVKGRFTISRDNAKNSLFLQMNSLRAEDTAVYYCARDIVHMVYDMDYYYYGMDVWGQGTTVTVSS
VL: not shown
notes: His variant of 300N
Kd [2]: 17.9 nM
t½ [2]: 7 min
KD ratio pH 5.75/pH 7.2 [3]: 3.66
t½ ratio pH 5.75/pH 7.2 [3]: 0.31
Kd [1]: 4.89 nM
t½ [1]: 23 min

B9: VH-D99H (antibody, V domains shown)
VH: EMQLVESGGGLVQPGGSLRLSCAASGFTFSSHWMKWVRQAPGKGLEWVANINQDGSEKYYVDSVKGRFTISRDNAKNSLFLQMNSLRAEDTAVYYCARHIVLMVYDMDYYYYGMDVWGQGTTVTVSS
VL: not shown
notes: His variant of 300N
Kd [2]: 6.32 nM
t½ [2]: 7 min
KD ratio pH 5.75/pH 7.2 [3]: 0.14
t½ ratio pH 5.75/pH 7.2 [3]: 0.73
Kd [1]: 46.2 nM
t½ [1]: 9 min

B10: VH-G55H (antibody, V domains shown)
VH: EMQLVESGGGLVQPGGSLRLSCAASGFTFSSHWMKWVRQAPGKGLEWVANINQDHSEKYYVDSVKGRFTISRDNAKNSLFLQMNSLRAEDTAVYYCARDIVLMVYDMDYYYYGMDVWGQGTTVTVSS
VL: not shown
notes: His variant of 300N
Kd [2]: 1.04 nM
t½ [2]: 15 min
KD ratio pH 5.75/pH 7.2 [3]: 1.13
t½ ratio pH 5.75/pH 7.2 [3]: 0.28
Kd [1]: 0.921 nM
t½ [1]: 53 min

B11: VK-S32H (antibody, V domains shown)
VH: EMQLVESGGGLVQPGGSLRLSCAASGFTFSSHWMKWVRQAPGKGLEWVANINQDGSEKYYVDSVKGRFTISRDNAKNSLFLQMNSLRAEDTAVYYCARDIVLMVYDMDYYYYGMDVWGQGTTVTVSS
VL: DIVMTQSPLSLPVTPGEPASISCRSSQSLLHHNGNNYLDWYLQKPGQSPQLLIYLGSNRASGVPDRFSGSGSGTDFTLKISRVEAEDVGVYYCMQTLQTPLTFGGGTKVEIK
notes: His variant of 300N
binding result [1]: no binding

B12: VH-F29H (antibody, V domains shown)
VH: EMQLVESGGGLVQPGGSLRLSCAASGFTHSSHWMKWVRQAPGKGLEWVANINQDGSEKYYVDSVKGRFTISRDNAKNSLFLQMNSLRAEDTAVYYCARDIVLMVYDMDYYYYGMDVWGQGTTVTVSS
VL: not shown
notes: His variant of 300N
Kd [2]: 1.91 nM
t½ [2]: 10 min
KD ratio pH 5.75/pH 7.2 [3]: 1.8
t½ ratio pH 5.75/pH 7.2 [3]: 0.22
Kd [1]: 1.06 nM
t½ [1]: 46 min

B13: VH-M103H (antibody, V domains shown)
VH: EMQLVESGGGLVQPGGSLRLSCAASGFTFSSHWMKWVRQAPGKGLEWVANINQDGSEKYYVDSVKGRFTISRDNAKNSLFLQMNSLRAEDTAVYYCARDIVLHVYDMDYYYYGMDVWGQGTTVTVSS
VL: not shown
notes: His variant of 300N
Kd [2]: 5.56 nM
t½ [2]: 6 min
KD ratio pH 5.75/pH 7.2 [3]: 1.68
t½ ratio pH 5.75/pH 7.2 [3]: 0.21
Kd [1]: 3.3 nM
t½ [1]: 27 min

B14: VH-K58H (antibody, V domains shown)
VH: EMQLVESGGGLVQPGGSLRLSCAASGFTFSSHWMKWVRQAPGKGLEWVANINQDGSEHYYVDSVKGRFTISRDNAKNSLFLQMNSLRAEDTAVYYCARDIVLMVYDMDYYYYGMDVWGQGTTVTVSS
VL: not shown
notes: His variant of 300N
Kd [2]: 1.28 nM
t½ [2]: 8 min
KD ratio pH 5.75/pH 7.2 [3]: 0.92
t½ ratio pH 5.75/pH 7.2 [3]: 0.26
Kd [1]: 1.39 nM
t½ [1]: 32 min

B15: VH-G113H (antibody, V domains shown)
VH: EMQLVESGGGLVQPGGSLRLSCAASGFTFSSHWMKWVRQAPGKGLEWVANINQDGSEKYYVDSVKGRFTISRDNAKNSLFLQMNSLRAEDTAVYYCARDIVLMVYDMDYYYYHMDVWGQGTTVTVSS
VL: not shown
notes: His variant of 300N
binding result [1]: no binding

B16: VH-G26H (antibody, V domains shown)
VH: EMQLVESGGGLVQPGGSLRLSCAASHFTFSSHWMKWVRQAPGKGLEWVANINQDGSEKYYVDSVKGRFTISRDNAKNSLFLQMNSLRAEDTAVYYCARDIVLMVYDMDYYYYGMDVWGQGTTVTVSS
VL: not shown
notes: His variant of 300N
Kd [2]: 0.956 nM
t½ [2]: 12 min
KD ratio pH 5.75/pH 7.2 [3]: 0.97
t½ ratio pH 5.75/pH 7.2 [3]: 0.26
Kd [1]: 0.985 nM
t½ [1]: 47 min

B17: VH-I100H (antibody, V domains shown)
VH: EMQLVESGGGLVQPGGSLRLSCAASGFTFSSHWMKWVRQAPGKGLEWVANINQDGSEKYYVDSVKGRFTISRDNAKNSLFLQMNSLRAEDTAVYYCARDHVLMVYDMDYYYYGMDVWGQGTTVTVSS
VL: not shown
notes: His variant of 300N
Kd [2]: 24.1 nM
t½ [2]: 3 min
KD ratio pH 5.75/pH 7.2 [3]: 3.56
t½ ratio pH 5.75/pH 7.2 [3]: 0.15
Kd [1]: 6.77 nM
t½ [1]: 18 min
